Target: T1, Trp1 as expressed by B16 melanoma cells (UniProt P07147 25-537, limits assumed)
T1 construct: whole, on cells; also called Tyrosinase-related protein 1; TYRP1
Assay: flow cytometry on permeabilized B16 cells, detection with anti-mouse IgG PE
Source text: FIG. 2 depicts Trp1 expression profile. B16, B78H1, and B78H1 engineered to express Trp1 on the surface were stained with TA99, TA99 single chain variable region fused to an Fc domain, or isotype control. The cell lines were washed and stained with anti-mouse IgG PE and further analyzed by flow cytometry. B16 was permeabilized before staining since the level of Trp1 expression is suboptimal in the surface in vitro.
An scFv that specifically binds to a mouse Trp1 polypeptide and a human Trp1 polypeptide was generated from a murine monoclonal antibody TA99 that was generated from the TA99 antibody disclosed in International Patent Publication No. WO96/40249. This scFv was cloned into an eGFP cassette. The binding specificity of this scFv to the Trp1 polypeptide was evaluated using a soluble protein comprising this scFv and a Fc domain fused to the scFv. The binding specificity of the scFv-Fc fusion protein to B16 melanoma cells (expressing Trp1), a B16 variant B78H1 (not expressing Trp1), and B78H1-Trp1 (B78H1 engineered to express TRP1 on the surface) was evaluated by flow cytometry. […]

binding result: binds
B1: soluble protein comprising the TA99-derived scFv and a Fc domain fused to the scFv (Fc fusion, not shown: a dimerising Fc or GST)
scFv: EVQLQQSGAELVRPGALVKLSCKTSGFNIKDYFLHWVRQRPDQGLEWIGWINPDNGNTVYDPKFQGTASLTADTSSNTVYLQLSGLTSEDTAVYFCTRRDYTYEKAALDYWGQGASVIVSSGGGGSGGGGSGGGGSAFQMSQSPASLSASVGETVTITCRASGNIYNYLAWYQQKQGKSPHLLVYDAKTLADGVPSRFSGSGSGTQYSLKISSLQTEDSGNYYCQHFWSLPFTFGSGTKLEIKAAA
notes: also called scFv-Fc fusion protein; TA99 single chain variable region fused to an Fc domain

Source: US20190375855A1 (Memorial Sloan Kettering, published 2019)
